Measured values published in IntAct's records for PubMed 10102273.

B1: Forkhead box protein O3 (Homo sapiens), O43524 (parent)
chain: MAEAPASPAPLSPLEVELDPEFEPQSRPRSCTWPLQRPELQASPAKPSGETAADSMIPEEEDDEDDEDGGGRAGSAMAIGGGGGSGTLGSGLLLEDSARVLAPGGQDPGSGPATAAGGLSGGTQALLQPQQPLPPPQPGAAGGSGQPRKCSSRRNAWGNLSYADLITRAIESSPDKRLTLSQIYEWMVRCVPYFKDKGDSNSSAGWKNSIRHNLSLHSRFMRVQNEGTGKSSWWIINPDGGKSGKAPRRRAVSMDNSNKYTKSRGRAAKKKAALQTAPESADDSPSQLSKWPGSPTSRSSDELDAWTDFRSRTNSNASTVSGRLSPIMASTELDEVQDDDAPLSPMLYSSSASLSPSVSKPCTVELPRLTDMAGTMNLNDGLTENLMDDLLDNITLPPSQPSPTGGLMQRSSSFPYTTKGSGLGSPTSSFNSTVFGPSSLNSLRQSPMQTIQENKPATFSSMSHYGNQTLQDLLTSDSLSHSDVMMTQSDPLMSQASTAVSAQNSRRNVMLRNDPMMSFAAQPNQGSLVNQNLLHHQHQTQGALGGSRALSNSVSNMGLSESSSLGSAKHQQQSPVSQSMQTLSDSLSGSSLYSTSANLPVMGHEKFPSDLDLDMFNGSLECDMESIIRSELMDADGLDFNFDSLISTQNVVGLNVGNFTGAKQASSQSWVPG

Variants of: B1
Conditions: with 1433z_human YWHAZ

Row | Variant | effect of a mutation on the interaction
1 | S253A | decreasing interaction strength
2 | T32A | decreasing interaction strength
3 | S315A | with no effect
4 | T32A;S253A | disrupting interaction strength

Variants of: B1
Conditions: with akt1_human AKT1, P31749
Chain of akt1_human AKT1, P31749 (P31749 whole entry): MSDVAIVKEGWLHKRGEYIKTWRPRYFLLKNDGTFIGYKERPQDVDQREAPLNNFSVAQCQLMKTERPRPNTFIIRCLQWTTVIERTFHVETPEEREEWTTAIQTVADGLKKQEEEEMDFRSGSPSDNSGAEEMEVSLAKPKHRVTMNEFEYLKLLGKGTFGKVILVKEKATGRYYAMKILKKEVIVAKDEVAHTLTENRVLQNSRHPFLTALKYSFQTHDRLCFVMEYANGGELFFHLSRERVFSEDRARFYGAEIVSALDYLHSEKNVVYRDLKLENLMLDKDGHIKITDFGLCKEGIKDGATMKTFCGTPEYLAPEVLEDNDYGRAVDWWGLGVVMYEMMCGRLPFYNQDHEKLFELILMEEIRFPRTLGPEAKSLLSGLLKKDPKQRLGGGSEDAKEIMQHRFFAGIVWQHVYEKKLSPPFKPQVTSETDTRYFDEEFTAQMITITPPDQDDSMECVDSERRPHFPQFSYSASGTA

Row | Variant | effect of a mutation on the interaction
5 | S315A | with no effect
